This is an account of results in patent US20230139700A1 (BIO THERA SOLUTIONS, published 2023).

B1: 11D4 (antibody, V domains shown)
VH: EVQLVESGGGLVQPGGSLRLSCAASGFTFSSYSMNWVRQAPGKGLEWVSYISSSSSTIDYADSVKGRFTISRDNAKNSLYLQMNSLRDEDTAVYYCARESGWYLFDYWGQGTLVTVSS
VL: DIQMTQSPSSLSASVGDRVTITCRASQGISSWLAWYQQKPEKAPKSLIYAASSLQSGVPSRFSGSGSGTDFTLTISSLQPEDFATYYCQQYNSYPPTFGGGTKVEIKR
B2: Antibody M (antibody, human IgG1, kappa, V domains shown)
VH: QVQLVESGGGVVQPGESLRLSCAASGFTFSSYGMHWVRQAPGKGLEWVAVIWEDGSNQYYADSVKGRFTISRDNSKNTLYLQMNSLRAEDTAVYYCAKDNQDTSPDVGIDYWGQGTLVTVSS
VL: DIQMTQSPSSLSASVGDRVTITCRASQNISPFLNWYQQKPGKAPKLLIYAAVGLQSGVPSRFSGSGSGTDFTLTISSLQPEDFATYYCQQYTDYPLTFGGGTKVEIKR
notes: also called antibody No. 12; anti-OX40 antibody (antibody M)
B3: WEST + VG (antibody, human IgG1, kappa, V domains shown)
VH: B2 VH with V5E
VL: B2 VL with R18T, T92N, D93S
B4: T + VGL + TD (antibody, human IgG1, kappa, V domains shown)
VH: B2 VH with V5E, W52S, E53Y
VL: B2 VL with R18T
B5: VH + VGTD (antibody, human IgG1, kappa, V domains shown)
VH: B2 VH with V5E, W52S, E53Y, T103S
VL: B2 VL with R18T
B6: T + VG (antibody, human IgG1, kappa, V domains shown)
VH: B2 VH with V5E, W52S, E53Y
VL: B2 VL with R18T, T92N, D93S
B7: T + TD (antibody, human IgG1, kappa, V domains shown)
VH: B2 VH with V5E, W52S, E53Y
VL: B2 VL with R18T, V52S, G53S
B8: WEST + VL (antibody, human IgG1, kappa, V domains shown)
VH: B2 VH with V5E
VL: B2 VL with R18T, V52S, G53S, T92N, D93S
B9: WEST + TD (antibody, human IgG1, kappa, V domains shown)
VH: B2 VH with V5E
VL: B2 VL with R18T, V52S, G53S
B10: Antibody-F23-4k (antibody, human IgG1, kappa, V domains shown)
VH: B2 VH with V5E, W52S, E53Y, T103S
VL: DIVMTQSPSSLSASVGDRVTITCRASQDILGYVNWYQQKPGKAPILLIYATSGLQGGVPSRFSGSGSGTDFTLTISSLQPEDFATYYCQQYNSYPLTFGGGTKVDIKR
notes: also called antibody No. 4
B11: Antibody-X35-6L (antibody, human IgG1, kappa, V domains shown)
VH: EVQLVESGGGLVQPGRSLRLSCAASGFTFDDYAMHWVRQAPGRGLEWVSGIGGSGGSTYYADSVKGRFTISRDNSKNTLYLQMNGLGAEDTAVYYCAKDRGYGDYYWYFDLWGRGTLVTVSS
VL: SSELTQPASVSGSPGQSITISCTGTSSDVGGYNYVSWYQQHPGKAPKLMIYDVSNRPSGVSNRFSGSKSGNTASLTISGLQAEDEADYYCSSYTTSSTLVFGGGTKVTVLR
notes: also called antibody No. 2
B12: Antibody-A6-1k (antibody, human IgG1, kappa, V domains shown)
VH: QVQLQRSGGGLVQPGGSLRLSCAASGFTFSSYGMTWVRQAPGKGLEWVSAISNSGGSTYYADSVKGRFTISRDNSKNTLYLQMNSLRAEDTAVYYCAKDGPYFDYWGQGTLVTVSS
VL: DIQMTQSPSTLSASVGDRVTITCRVSQGIGDDLGWYQQKPGKAPKLLIYKASNLESGVPSRFSGSGSGTDFSLTISSLQPEDFATYFCQQAHSFPPTFGGGTKLEIKR
notes: also called Antibody-A6-lk; antibody No. 7
B13: Antibody-F23-7k (antibody, human IgG1, kappa, V domains shown)
VH: B2 VH with V5E, W52S, E53Y, T103S
VL: B1 VL with G28S, W32Y, A34N, E41G, S46L, I48M, Q89L, Y91I, N92D, P96L
notes: also called antibody No. 5
B14: Antibody-M5-5k (antibody, human IgG1, kappa, V domains shown)
VH: QVQLVESGGGLIQPGGSLRLSCTASGFTFSTYAMSWVRQAPGKGLEWVSAISGTGDWASYADSVKGRFTTSRDNSRNTLYLQMNNLRDEDTAIYYCAKSSSTVATDFDYGMDVWGQGTLVTVSS
VL: ETTLTQSPSTLSASVGDRVTITCRASEEIGSWLAWYQQTPGKAPKRLIYEASSLQSGVPSRFSGSGSGTDFTLTISSLQPEDFATYYCQQYGSYPPTFGQGTKVEIKR
notes: also called antibody No. 8
B15: Antibody-M5-7k (antibody, human IgG1, kappa, V domains shown)
VH: B14 VH
VL: DIVMTQSPSTLSASVGDRVTVTCRASEDIGRWLAWYQQKPGKAPKRLIYAASSLQSGVPSRFSGSGSGTEFTLTISSLQPEDFATYYCQQYYNYPPTFGQGTKVEIKR
notes: also called antibody No. 9
B16: Antibody-F15-1L (antibody, human IgG1, kappa, V domains shown)
VH: QVQLRESGGGLVQPGGSLRLSCAASGFTFSSYAMNWVRQAPGKGLEWVSAISGSGGNTYYADSVKGRLTISRDNSKNTLYLQMNSLRAEDTAVYYCAKDPLGSSWFEYFQHWGQGTLVTVSS
VL: QSALTQPASVSGSPGQSITISCTGTSSDVGGYNYVSWYQKHPGKAPKLMIYEVSNRPSGVSNRFSGSKSANTASLTISGLQAEDEADYFCSSYSSSSTLVVFGGGTKLTVLR
notes: also called Antibody-F15-IL; antibody No. 3
B17: Antibody-FE-16H (antibody, human IgG1, kappa, V domains shown)
VH: QVQLVESGGGLVQPGGSLRLSCAASGFTFSSYAMSWVRQAPGKGLEWVSAISGSGGSTYYADSVKGRFTISRDNSKNSLYLQMNSLRAEDTAVYYCARGDSSSWFIFQDWGQGTLVTVSS
VL: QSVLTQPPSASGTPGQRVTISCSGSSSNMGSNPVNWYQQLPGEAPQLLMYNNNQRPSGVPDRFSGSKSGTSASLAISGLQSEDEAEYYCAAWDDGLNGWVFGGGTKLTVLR
notes: also called antibody No. 10
B18: Antibody-A2 (antibody, human IgG1, kappa, V domains shown)
VH: QVQLVESGGGLIQPGGSLRLSCAASGFTVSSNYMSWVRQAPGEGLEWIATIYYGGSTYYNPSLKSRVTISADMSKNQFSLKLSSMTAADTAVYYCARVVVPGYFDLWGRGTLVTVSS
VL: SSELTQDPAVSVALGQTVSITCQGDSLRSYYASWYQQKPGQAPVPVIYGKNNRPSGIPDRFSGSSSGNTASLTITGAQAEDEADYYCHSRDSSGKYVFGVGTKLTVLR
notes: also called antibody No. 11

In general, EC50 refers to the midpoint of the concentration-response curve. Read a low EC50 as higher potency in that assay. By koff is commonly meant the rate constant with which the complex falls apart. The low end stands for a long-lived complex, the high end for a short-lived complex. By kon is commonly meant the rate constant with which the complex forms. As a reminder, the EC50 (read off the curve) is the concentration giving half of the maximal effect. A higher EC50 (read off the curve) goes with a less potent agent.

Changes are numbered by the printed parent chain.

The first test has as its target T1, human OX40 on cells (human, UniProt P43489 29-277).
T1 construct: whole, on cells; the cell is named under assay; also called hOX40; Jurkat-hOX40 cells
T1 sequence (looked up): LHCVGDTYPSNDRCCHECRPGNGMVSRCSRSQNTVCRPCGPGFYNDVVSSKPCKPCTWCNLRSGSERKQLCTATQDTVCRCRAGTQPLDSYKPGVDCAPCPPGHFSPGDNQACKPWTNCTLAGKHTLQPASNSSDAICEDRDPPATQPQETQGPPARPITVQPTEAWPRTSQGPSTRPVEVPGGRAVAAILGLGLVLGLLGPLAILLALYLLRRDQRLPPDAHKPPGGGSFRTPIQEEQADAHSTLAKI
Kind of test: flow cytometry (MFI) on Jurkat cells overexpressing OX40, antibody titration; the unit nM comes from the legend paragraph 95. The text has this:
(§1) Table 10 illustrates the CDRs of eight full antibodies containing these amino acid mutations, and the rest of the sequences are the same as those of antibody-F23-32K. […] The sequences of the anti-OX40 antibody (antibody M) are shown in Table 12; wherein, the expression cells used for the antibodies above (including antibody M) are CHO-S cells, and the method for preparing the antibody M-KF is as follows: the antibody M was identical to the antibody M-KF in terms of amino acid sequence and was expressed by the CHO cell line in which the fut8 gene was knocked out (the content of fucose in antibody M-KF was about 0%).
On the technique in general: In flow cytometry, cells or beads pass a laser one at a time.
As to B1, a half-maximal effect (EC50) was put at 1.17 nM.

On to B2, for which the EC50 was 1.2 nM.

The target in a further test is T2, hOX40-his (human, UniProt P43489 29-216).
T2 construct: range 1-216; Made in HEK293; The stated range starts at residue 1 (holds the signal peptide of the entry); no cleavage site stated; not shown: his tag
T2 sequence (looked up): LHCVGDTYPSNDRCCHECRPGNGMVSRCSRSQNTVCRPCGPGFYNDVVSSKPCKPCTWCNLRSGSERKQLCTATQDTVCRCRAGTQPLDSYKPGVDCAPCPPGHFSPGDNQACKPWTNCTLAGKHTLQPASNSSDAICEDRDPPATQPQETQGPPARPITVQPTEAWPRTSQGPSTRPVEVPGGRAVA
Kind of test: BIACORE, antibody on the probe, 20 nM OX40-his.
Source text: as §1
(In general: SPR reads the build-up and loss of mass on a sensor chip optically.)
B1: the Kd stood at 1.31 nM, the koff is 0.000461 s⁻¹ and the kon was 353000 M⁻¹ s⁻¹.

Turning to B2, the Kd was 0.16 nM, the “fold higher affinity than 11D4” value was about 9 fold, the “fold higher affinity than OX40mAb24” value was about 21 fold and the “fold increase of affinity (against antibody-F23-32K)” value is about 70 fold. Besides, the koff stood at 9.77e-05 s⁻¹ and the kon was 610000 M⁻¹ s⁻¹.

Consider B3, for which the Kd is 0.77 nM, the koff came to 0.000348 s⁻¹ and the kon was found to be 452000 M⁻¹ s⁻¹.

On to B4, for which the Kd was found to be 0.266 nM, the koff was found to be 0.000119 s⁻¹ and the kon amounted to 448000 M⁻¹ s⁻¹.

B5: the Kd is 0.565 nM, the off-rate (koff) is 0.000243 s⁻¹ and the kon was found to be 431000 M⁻¹ s⁻¹.

Consider B6, for which the Kd is 4.54 nM, the koff is 0.00133 s⁻¹ and the kon stood at 292000 M⁻¹ s⁻¹.

Regarding B7, the Kd turned out to be 5.01 nM, the koff came out at 0.00139 s⁻¹ and the kon stood at 278000 M⁻¹ s⁻¹.

As for B8, the Kd came out at 1.93 nM, the koff came to 0.000714 s⁻¹ and the kon worked out at 371000 M⁻¹ s⁻¹.

On to B9, for which the Kd worked out at 0.653 nM, the koff was found to be 0.000321 s⁻¹ and the kon turned out to be 491000 M⁻¹ s⁻¹.

The next test concerns the target T1, human OX40 on cells. Nature of the test: flow cytometry on Jurkat-hOX40 cells, 3-fold dilutions from 50 nM, MFI. The procedure: Antibody-F23-4k and antibody-F23-32k, as well as two control antibodies 11D4 and OX40mAb24 at different concentrations were used to incubate Jurkat-hOX40 cells.
On to B1, for which the EC50 turned out to be 1.5 nM.

Consider B10, for which a half-maximal response (EC50) required 1.5 nM.

In a further test the target is T3, hOX40-FC (human, UniProt P43489 29-216).
T3 construct: range 1-216; Made in HEK293; The stated range 1-216 starts at residue 1, so it holds the signal peptide of the entry; also called human OX40 extracellular region fused to human IgG1-Fc; not shown: human IgG1-Fc, UniProt P01857, residues 104 to 330
T3 sequence (looked up): T2 sequence (looked up)
Nature of the test: BLI (ForteBio), biotinylated antibody on SA sensor, OX40-Fc 50 nM bivalent, 1:1 model. As for the experimental part: The ForteBio affinity assay was conducted according to the existing conventional method (Estep, P et al., MAbs, 2013, 5(2): 270-8). The brief process is as follows: the sensor was equilibrated offline in an assay buffer (such as PBS) for 20 min and then subjected to online test for 60 s to establish a signal baseline. The purified antibodies obtained as described above were each loaded online onto a corresponding sensor (ForteBio), and finally the ForteBio affinity assay was conducted. The biotinylated candidate antibodies were adsorbed with the SA sensor, and binding and dissociation of hOX40-FC were each detected for about 5 min. The results are shown in Table 4, and N.D indicates not detected in Table 4. Finally, kinetic analysis was performed for all by using a 1:1 binding model.
The molecule B11 yielded a Kd of under 0.1 nM.

With B12, the Kd was 4 nM.

The molecule B10 registered a Kd of 0.6 nM.

In turn, B13 displayed a Kd of 2 nM.

With B14, the Kd is 2 nM.

In the case of B15, the Kd is 0.4 nM.

Turning to B16, the Kd worked out at 3 nM.

For the molecule B17, the Kd was 3 nM.

B18: the Kd is 9 nM.

For another test, the target named is T1, human OX40 on cells. Nature of the test: flow cytometry (MFI) on Jurkat cells overexpressing OX40, antibody titration.
Source text: as §1
As for B1, the “EC50 (read off the curve)” value is about 1 nM.

For the molecule B2, the half-maximal effective concentration (EC50 (read off the curve)) was about 1 nM.

The target in a further test is T1, human OX40 on cells. Kind of test: cell-based or functional assay.
Turning to B2, the “NFκB reporter in Jurkat-hOX40-NFκB-2 cells with Raji cells, activation peak against 11D4” value was about 2.5 fold.
